Experimental data: patent publication US20080193435A1, “Revascularization of Ischemic Retinal Tissue and Screening Method Therefor” (priority 2005, published 2008)
Entries after “also recorded” stand apart in the source; their conditions may differ.

B1: T2-TrpRS: proteolytic fragment of tryptophan tRNA synthetase (TrpRS); SEQ ID NO: 1 (protein, listed as Homo sapiens)
chain: SAKGIDYDKLIVRFGSSKIDKELINRIERATGQRPHHFLRRGIFFSHRDMNQVLDAYENKKPFYLYTGRGPSSEAMHVGHLIPFIFTKWLQDVFNVPLVIQMTDDEKYLWKDLTLDQAYSYAVENAKDIIACGFDINKTFIFSDLDYMGMSSGFYKNVVKIQKHVTFNQVKGIFGFTDSDCIGKISFPAIQAAPSFSNSFPQIFRDRTDIQCLIPCAIDQDPYFRMTRDVAPRIGYPKPALLHSTFFPALQGAQTKMSASDPNSSIFLTDTAKQIKTKVNKHAFSGGRDTIEEHRQFGGNCDVDVSFMYLTFFLEDDDKLEQIRKDYTSGAMLTGELKKALIEVLQPLIAEHQARRKEVTDEIVKEFMTPRKLSFDFQ
B2: FL-TrpRS: full-length tryptophan tRNA synthetase (protein, UniProt P23381 1-471, looked up)
chain: MPNSEPASLLELFNSIATQGELVRSLKAGNASKDEIDSAVKMLVSLKMSYKAAAGEDYKADCPPGNPAPTSNHGPDATEAEEDFVDPWTVQTSSAKGIDYDKLIVRFGSSKIDKELINRIERATGQRPHHFLRRGIFFSHRDMNQVLDAYENKKPFYLYTGRGPSSEAMHVGHLIPFIFTKWLQDVFNVPLVIQMTDDEKYLWKDLTLDQAYSYAVENAKDIIACGFDINKTFIFSDLDYMGMSSGFYKNVVKIQKHVTFNQVKGIFGFTDSDCIGKISFPAIQAAPSFSNSFPQIFRDRTDIQCLIPCAIDQDPYFRMTRDVAPRIGYPKPALLHSTFFPALQGAQTKMSASDPNSSIFLTDTAKQIKTKVNKHAFSGGRDTIEEHRQFGGNCDVDVSFMYLTFFLEDDDKLEQIRKDYTSGAMLTGELKKALIEVLQPLIAEHQARRKEVTDEIVKEFMTPRKLSFDFQ
modifications: full-length
notes: full-length tryptophan tRNA synthetase

What was measured:
mouse OIR model = experiment: Mouse oxygen-induced retinopathy (OIR) model, whole-mount retina quantification of vascular obliteration and neovascular tuft areas; type: in vivo; set-up: vascular morphology of the retina / neovascular tuft areas compared to VEGF aptamer treated retinas: dose or concentration left out as unconfirmed; details: for effect on area of neovascular tuft formation: single intravitreal injection at P12, various doses; for effect on physiological revascularization of the retina: vs PBS control
Protocol: All animal work adhered to strict protocol guidelines for the humane care and use of animals in research. OIR was induced according to the protocol described by Smith et al. Invest. Opthalmol. Vis. Sci., 1994; 35:101-111. Seven-day old mouse pups and their mothers were transferred from room air to a hyperoxic environment of about 75% oxygen for 5 days, and afterwards returned to room air (normoxia). Exposure to hyperoxic conditions was performed by putting the animal cages within a modified human infant incubator. Oxygen was circulated through the incubator (using an animal anesthesia machine to control flow) and levels were monitored and maintained at 74-75% using an FDA-approved oxygen analyzer (AX-300, Teledyne Analytical Instruments, CA, USA). During the 5 days of hyperoxia, the animals were examined at least three times daily. Unlimited food and water were available to the mothers throughout the experiment. After 5 days, i.e., at postnatal Day 12 (P12), cages were returned to room air.
After the mice were euthanized, enucleated eyes were fixed in 4% paraformaldehyde in PBS for about 10 minutes, and the retinas were dissected by making a circular cut behind the limbus, approximately at the iris root, and then removing the anterior part of the eye. The lens and vitreous were dissected out, and the retina was separated from the scleral and choroidal layers leaving the retina in an eye-cup configuration. Radial relaxing-incisions were made in the retina to allow it to flatten and any remnants of the vitreous or hyaloid were carefully removed from the flattened retina.
For FITC-dextran angiography, animals were anaesthetized by intraperitoneal injections of Ketamine HCl (Ketalar, Parke Davis, UK, 100 mg/kg) in combination with the relaxing agent Xylazine (2 mg/kg). Approximately 300 μl of high molecular weight (2×106 Da) FITC-Dextran (concentration 50 mg/ml, Sigma, St. Louis, Mo.) were injected into the left ventricle and allowed to circulate for approximately two minutes before euthanizing the animal and enucleating the eyes. For isolectin G4 staining, retinas were post-fixed in 4% paraformaldehyde for about 45 minutes, and incubated at room temperature overnight with isolectin GS-IB4 from Griffonia simplicifolia (isolectin GS) that was conjugated to Alexa Fluor 59 4 (Molecular Probes, 1:150 dilution in phosphate buffered saline (PBS)) to afford “isolectin GS-594”. Following 4-5 washes with PBS over a 2 hour span, retinas were mounted as whole-mount preparations on slides with SLOW FADE (Molecular Probes) for subsequent imaging.
Micrographic images were taken using a 4× objective lens with a detector resolution of 512×512 pixels. Extra care was taken to focus just above the inner limiting membrane of the retina using confocal microscopy (BioRad) so that the pre-laminar neovascular tufts became more prominent than the underlying superficial vascular plexus making subsequent quantification of the neovascular tuft areas easier. In most cases, four overlapping images (each representing one retinal quadrant) were acquired from each retina. Using Adobe PHOTOSHOP® 6.0, montages were then created using retinal landmarks such as the optic disc and major vessels to align the images. These montages allowed visualization and quantification of the entire retina. In a few cases where both the obliterated areas and all areas of neovascularization were located toward the center of the retina, single 4× images centered on the optic disk were acquired. While the peripheral retina is not included in its entirety in such images, the relevant OIR-induced changes can be fully seen in these cases. Each individual image was converted to a 2×2 inch size with 300 pixels per inch resolution prior to creating the montage and quantifying the obliteration and neovascular tuft areas. […]

angiogenesis = details: previously found; cited from earlier work
[1] = single intravitreal injection at P12, read at P17

Row | Molecule | reduction of tuft formation (mouse OIR model; P19, after two injections (P13 and P16) of lower doses, VEGF aptamer 0.5 mg/eye/injection, 53.9 picomoles) | neovascular tuft areas compared to VEGF aptamer treated retinas (mouse OIR model; T2-TrpRS, intravitreal, molar concentration 10-fold below the aptamer) | inhibition of neovascular tuft formation (mouse OIR model; about 1.25 μg/eye, intravitreal) | vascular morphology of the retina (mouse OIR model; intravitreal at P12, P17) | obliterated areas compared to control retinas (mouse OIR model; intravitreal injection, areas of obliteration equivalent at time of injection) | effect on area of neovascular tuft formation (mouse OIR model; read at P17) | reduction of obliterated areas at P17 compared to PBS control-injected retinas (mouse OIR model; [1]) | effect on physiological revascularization of the retina (mouse OIR model; [1]) | angiostatic activity in other models of angiogenesis (angiogenesis)
1 | B1 | over 75% | slight, but significant reduction | nearly complete inhibition | looked nearly normal | reduced by half | markedly reduced the area of neovascular tuft formation at P17 in a dose-dependent matter; also recorded: potent inhibitors of neovascular tuft formation; also recorded: strong, dose-dependent angiostatic effect | around 40% | significantly enhanced revascularization, even at lower doses | potent angiostatic potential
2 | B2 |  |  |  |  |  | some activity at the highest dose |  | significant enhancement of the revascularization process but only at the higher doses | no angiostatic activity
